Legend:
[1] = target: H3 hemagglutinin (A/Hong Kong/1/1968) (Influenza A virus A/Hong Kong/1/1968 …, UniProt Q91MA7 27-521); assay: yeast surface display titration
[2] = target: H1 hemagglutinin (A/South Carolina/1/1918) (Influenza A virus A/South …, UniProt Q9WFX3 18-520); assay: yeast surface display titration
H1 hemagglutinin (A/South Carolina/1/1918), sequence (Q9WFX3 18-520 limits assumed): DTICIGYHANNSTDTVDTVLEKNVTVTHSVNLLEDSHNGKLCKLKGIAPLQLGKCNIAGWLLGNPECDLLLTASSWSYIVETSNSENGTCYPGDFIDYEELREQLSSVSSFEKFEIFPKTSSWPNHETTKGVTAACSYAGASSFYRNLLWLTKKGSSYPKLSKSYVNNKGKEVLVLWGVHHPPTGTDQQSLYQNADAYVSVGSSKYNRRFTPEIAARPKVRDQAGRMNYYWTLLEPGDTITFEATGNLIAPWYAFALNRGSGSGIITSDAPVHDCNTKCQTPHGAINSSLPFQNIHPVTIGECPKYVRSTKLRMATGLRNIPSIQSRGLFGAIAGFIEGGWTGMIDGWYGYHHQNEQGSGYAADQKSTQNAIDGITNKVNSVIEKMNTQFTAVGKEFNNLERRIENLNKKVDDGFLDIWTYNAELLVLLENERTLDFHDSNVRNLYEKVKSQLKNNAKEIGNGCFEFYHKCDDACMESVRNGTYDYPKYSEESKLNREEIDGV

H3 hemagglutinin (A/Hong Kong/1/1968), sequence (Q91MA7 27-521 limits assumed): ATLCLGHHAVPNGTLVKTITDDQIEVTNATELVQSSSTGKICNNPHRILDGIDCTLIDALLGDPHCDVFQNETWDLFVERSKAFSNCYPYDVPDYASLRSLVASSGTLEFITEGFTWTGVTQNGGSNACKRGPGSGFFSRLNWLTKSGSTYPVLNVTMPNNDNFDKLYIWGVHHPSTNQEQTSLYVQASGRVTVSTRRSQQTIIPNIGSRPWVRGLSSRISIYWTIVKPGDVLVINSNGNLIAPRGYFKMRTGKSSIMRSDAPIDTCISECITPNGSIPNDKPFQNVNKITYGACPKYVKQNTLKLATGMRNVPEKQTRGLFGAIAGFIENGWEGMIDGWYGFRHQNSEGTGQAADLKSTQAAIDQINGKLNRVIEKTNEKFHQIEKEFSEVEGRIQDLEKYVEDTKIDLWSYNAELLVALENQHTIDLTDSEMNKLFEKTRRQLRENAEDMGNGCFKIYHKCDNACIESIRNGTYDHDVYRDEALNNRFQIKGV

B1: 52alt1-3 (designed binder)
chain: GIVNVPNPNTTKYQQLARSAIAIYNNHQNAHLEFVENLNVKEQVSYGAMYYITLAATDDAGKKKIYKAKVGVVESAGWVGVEEFKLV
[1]
  Kd: 3 nM
[2]
  binding result: no binding

Source: patent US20150376238A1 (University of Washington, published 2015)
